Laboratory results: PMC12344017 (Nature Communications, 2025)

Target: the molecule itself
Test: cryo-EM structure

B1: MscS/YnaI chimera (other, E. coli | Escherichia coli, UniProt P0C0S1 1-31, looked up)
chain: MEDLNVVDSINGAGSWLVANQALLLSYAVNIIDFICTSLIAVILTIKLFLLINQFEKQQIKKGRDITSARIMSRIIKITIIVVLVLLYGEHFGMSLSGLLTFGGIGGLAVGMAGKDILSNFFSGIMLYFDRPFSIGDWIRSPDRNIEGTVAEIGWRITKITTFDNRPLYVPNSLFSSISVENPGRMTNRRITTTIGLRYEDAAKVGVIVEAVREMLKNHPAIDQRQTLLVYFNQFADSSLNIMVYCFTKTTVWAEWLAAQQDVYLKIIDIVQSHGADFAFPSQTLYMDNITPPEQGR
Q: Does B1 bind?
A: Result: binds
